Target: human IL-21 receptor (IL-21R) on cells (human, UniProt Q9HBE5 20-538; P31785 23-369)
Assay: cell-based or functional assay

Sequence of human IL-21 receptor (IL-21R) on cells (Q9HBE5 20-538, chain 1 of 2): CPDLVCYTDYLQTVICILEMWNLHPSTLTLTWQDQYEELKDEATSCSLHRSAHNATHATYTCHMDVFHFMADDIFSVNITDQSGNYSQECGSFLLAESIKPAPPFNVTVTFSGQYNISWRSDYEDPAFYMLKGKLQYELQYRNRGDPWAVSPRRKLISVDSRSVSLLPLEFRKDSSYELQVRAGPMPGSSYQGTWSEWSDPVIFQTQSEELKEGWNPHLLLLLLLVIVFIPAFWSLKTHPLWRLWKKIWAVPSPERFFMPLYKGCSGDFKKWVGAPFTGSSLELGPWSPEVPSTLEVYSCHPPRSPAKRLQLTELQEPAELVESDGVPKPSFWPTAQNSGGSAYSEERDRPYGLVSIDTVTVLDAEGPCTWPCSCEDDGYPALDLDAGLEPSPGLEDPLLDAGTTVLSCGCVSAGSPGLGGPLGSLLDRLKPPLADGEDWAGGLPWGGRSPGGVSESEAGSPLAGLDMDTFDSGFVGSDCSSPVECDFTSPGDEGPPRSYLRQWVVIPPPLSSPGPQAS
Sequence of human IL-21 receptor (IL-21R) on cells (P31785 23-369, chain 2 of 2): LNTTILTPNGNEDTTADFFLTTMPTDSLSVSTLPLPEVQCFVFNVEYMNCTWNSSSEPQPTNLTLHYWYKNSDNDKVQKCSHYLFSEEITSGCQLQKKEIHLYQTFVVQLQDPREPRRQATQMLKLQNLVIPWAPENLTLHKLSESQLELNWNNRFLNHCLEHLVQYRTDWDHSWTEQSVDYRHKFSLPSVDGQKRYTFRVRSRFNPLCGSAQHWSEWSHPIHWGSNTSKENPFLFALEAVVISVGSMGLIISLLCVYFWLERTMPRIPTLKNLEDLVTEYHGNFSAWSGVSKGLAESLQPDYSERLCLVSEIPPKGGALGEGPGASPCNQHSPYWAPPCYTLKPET

| Binder | EC50B, pSTAT3+ Jurkat PD-1 cells, PD-1 blocked | EC50NB, pSTAT3+ Jurkat PD-1 cells |
| --- | --- | --- |
| EFY288 (bispecific antibody, human IgG1, kappa, lambda, L234A L235A) heavy 1: EVQLLESGGGLVQPGGSLRLSCAASGFTFSINAMTWVRQAPGKGLEWVSTISGSGFSTYYADSLKGRFTISRDNSKNTLYLQMNSLRAEDTAVYYCAKEVYGDYWGQGTLVTVSSASTKGPSVFPLAPSSKSTSGGTAALGCLVKDYFPEPVTVSWNSGALTSGVHTFPAVLQSSGLYSLSSVVTVPSSSLGTQTYICNVNHKPSNTKVDKRVEPKSCDKTHTCPPCPAPEAAGGPSVFLFPPKPKDTLMISRTPEVTCVVVDVSHEDPEVKFNWYVDGVEVHNAKTKPREEQYNSTYRVVSVLTVLHQDWLNGKEYKCKVSNKALAAPIEKTISKAKGQPREPQVCTLPPSREEMTKNQVSLSCAVKGFYPSDIAVEWESNGQPENNYKTTPPVLDSDGSFFLVSKLTVDKSRWQQGNVFSCSVMHEALHNHYTQKSLSLSPGK light 1: not shown heavy 2: QVQLQESGPGLVKPSETLSLTCTVSGGSISSDYWGWIRQPPGKGLEWIGYISYRGSTNYNPSLKSRVTISVDTSRNQFSLKLSSVTAADTAVYYCARSAGVTDFDAWGQGTLVTVSSASTKGPSVFPLAPSSKSTSGGTAALGCLVKDYFPEPVTVSWNSGALTSGVHTFPAVLQSSGLYSLSSVVTVPSSSLGTQTYICNVNHKPSNTKVDKRVEPKSCDKTHTCPPCPAPEAAGGPSVFLFPPKPKDTLMISRTPEVTCVVVDVSHEDPEVKFNWYVDGVEVHNAKTKPREEQYNSTYRVVSVLTVLHQDWLNGKEYKCKVSNKALAAPIEKTISKAKGQPREPQVYTLPPCREEMTKNQVSLWCLVKGFYPSDIAVEWESNGQPENNYKTTPPVLDSDGSFFLYSKLTVDKSRWQQGNVFSCSVMHEALHNHYTQKSLSLSPGK light 2: not shown | 0.234 nM | 0.129 nM |
| CDP451 (bispecific antibody, human IgG1, kappa, lambda, L234A L235A) heavy 1: EVQLLESGGGLVQPGGSLRLSCAASGFTFSINAMTWVRQAPGKGLEWVSTISGSGFSTYYADSLKGRFTISRDNSKNTLYLQMNSLRAEDTAVYYCAKEVYGDYWGQGTLVTVSSASTKGPSVFPLAPSSKSTSGGTAALGCLVKDYFPEPVTVSWNSGALTSGVHTFPAVLQSSGLYSLSSVVTVPSSSLGTQTYICNVNHKPSNTKVDKRVEPKSCDKTHTCPPCPAPEAAGGPSVFLFPPKPKDTLMISRTPEVTCVVVDVSHEDPEVKFNWYVDGVEVHNAKTKPREEQYNSTYRVVSVLTVLHQDWLNGKEYKCKVSNKALAAPIEKTISKAKGQPREPQVCTLPPSREEMTKNQVSLSCAVKGFYPSDIAVEWESNGQPENNYKTTPPVLDSDGSFFLVSKLTVDKSRWQQGNVFSCSVMHEALHNHYTQKSLSLSPGK light 1: not shown heavy 2: QVQLQESGPGLVKPSETLSLTCTVSGGSISSDFWGWIRQPPGKGLEWIGYISSRGSTNYNPSLKRRVTISVDTSRNQFSLKLSSVTAADTAVYYCARSAGVTDFDFWGQGTLVTVSSASTKGPSVFPLAPSSKSTSGGTAALGCLVKDYFPEPVTVSWNSGALTSGVHTFPAVLQSSGLYSLSSVVTVPSSSLGTQTYICNVNHKPSNTKVDKRVEPKSCDKTHTCPPCPAPEAAGGPSVFLFPPKPKDTLMISRTPEVTCVVVDVSHEDPEVKFNWYVDGVEVHNAKTKPREEQYNSTYRVVSVLTVLHQDWLNGKEYKCKVSNKALAAPIEKTISKAKGQPREPQVYTLPPCREEMTKNQVSLWCLVKGFYPSDIAVEWESNGQPENNYKTTPPVLDSDGSFFLYSKLTVDKSRWQQGNVFSCSVMHEALHNHYTQKSLSLSPGK light 2: not shown | 1.24 nM | 0.106 nM |
| CDP278 (bispecific antibody, human IgG1, kappa, lambda, L234A L235A) heavy 1: EVQLLESGGGLVQPGGSLRLSCAASGFTFSINAMTWVRQAPGKGLEWVSTISGSGFSTYYADSLKGRFTISRDNSKNTLYLQMNSLRAEDTAVYYCAKEVYGDYWGQGTLVTVSSASTKGPSVFPLAPSSKSTSGGTAALGCLVKDYFPEPVTVSWNSGALTSGVHTFPAVLQSSGLYSLSSVVTVPSSSLGTQTYICNVNHKPSNTKVDKRVEPKSCDKTHTCPPCPAPEAAGGPSVFLFPPKPKDTLMISRTPEVTCVVVDVSHEDPEVKFNWYVDGVEVHNAKTKPREEQYNSTYRVVSVLTVLHQDWLNGKEYKCKVSNKALAAPIEKTISKAKGQPREPQVCTLPPSREEMTKNQVSLSCAVKGFYPSDIAVEWESNGQPENNYKTTPPVLDSDGSFFLVSKLTVDKSRWQQGNVFSCSVMHEALHNHYTQKSLSLSPGK light 1: not shown heavy 2: QVQLQESGPGLVKPSETLSLTCTVSGGSISSDFWGWIRQPPGKGLEWIGYISSRGSTNYNPSLKRRVTISVDTSRNQFSLKLSSVTAADTAVYYCARSAGVTDFDFWGQGTLVTVSSASTKGPSVFPLAPSSKSTSGGTAALGCLVKDYFPEPVTVSWNSGALTSGVHTFPAVLQSSGLYSLSSVVTVPSSSLGTQTYICNVNHKPSNTKVDKRVEPKSCDKTHTCPPCPAPEAAGGPSVFLFPPKPKDTLMISRTPEVTCVVVDVSHEDPEVKFNWYVDGVEVHNAKTKPREEQYNSTYRVVSVLTVLHQDWLNGKEYKCKVSNKALAAPIEKTISKAKGQPREPQVYTLPPCREEMTKNQVSLWCLVKGFYPSDIAVEWESNGQPENNYKTTPPVLDSDGSFFLYSKLTVDKSRWQQGNVFSCSVMHEALHNHYTQKSLSLSPGK light 2: not shown | 1.05 nM | 0.167 nM |
| XOW683 (bispecific antibody, human IgG1, kappa, lambda, L234A L235A) heavy 1: EVQLLESGGGLVQPGGSLRLSCAASGFTFSINAMTWVRQAPGKGLEWVSTISGSGFSTYYADSLKGRFTISRDNSKNTLYLQMNSLRAEDTAVYYCAKEVYGDYWGQGTLVTVSSASTKGPSVFPLAPSSKSTSGGTAALGCLVKDYFPEPVTVSWNSGALTSGVHTFPAVLQSSGLYSLSSVVTVPSSSLGTQTYICNVNHKPSNTKVDKRVEPKSCDKTHTCPPCPAPEAAGGPSVFLFPPKPKDTLMISRTPEVTCVVVDVSHEDPEVKFNWYVDGVEVHNAKTKPREEQYNSTYRVVSVLTVLHQDWLNGKEYKCKVSNKALAAPIEKTISKAKGQPREPQVCTLPPSREEMTKNQVSLSCAVKGFYPSDIAVEWESNGQPENNYKTTPPVLDSDGSFFLVSKLTVDKSRWQQGNVFSCSVMHEALHNHYTQKSLSLSPGK light 1: not shown heavy 2: QVQLQESGPGLVKPSETLSLTCTVSGGSISSDYWGWIRQPPGKGLEWIGYISYSGSTNYNPSLKSRVTISVDTSRNQFSLKLSSVTAADTAVYYCARSAGVTDFDAWGQGTLVTVSSASTKGPSVFPLAPSSKSTSGGTAALGCLVKDYFPEPVTVSWNSGALTSGVHTFPAVLQSSGLYSLSSVVTVPSSSLGTQTYICNVNHKPSNTKVDKRVEPKSCDKTHTCPPCPAPEAAGGPSVFLFPPKPKDTLMISRTPEVTCVVVDVSHEDPEVKFNWYVDGVEVHNAKTKPREEQYNSTYRVVSVLTVLHQDWLNGKEYKCKVSNKALAAPIEKTISKAKGQPREPQVYTLPPCREEMTKNQVSLWCLVKGFYPSDIAVEWESNGQPENNYKTTPPVLDSDGSFFLYSKLTVDKSRWQQGNVFSCSVMHEALHNHYTQKSLSLSPGK light 2: not shown | 1.84 nM | 0.413 nM |
| CHU368 (bispecific antibody, human IgG1, kappa, lambda, L234A L235A) heavy 1: EVQLLESGGGLVQPGGSLRLSCAASGFTFSINAMTWVRQAPGKGLEWVSTISGSGFSTYYADSLKGRFTISRDNSKNTLYLQMNSLRAEDTAVYYCAKEVYGDYWGQGTLVTVSSASTKGPSVFPLAPSSKSTSGGTAALGCLVKDYFPEPVTVSWNSGALTSGVHTFPAVLQSSGLYSLSSVVTVPSSSLGTQTYICNVNHKPSNTKVDKRVEPKSCDKTHTCPPCPAPEAAGGPSVFLFPPKPKDTLMISRTPEVTCVVVDVSHEDPEVKFNWYVDGVEVHNAKTKPREEQYNSTYRVVSVLTVLHQDWLNGKEYKCKVSNKALAAPIEKTISKAKGQPREPQVCTLPPSREEMTKNQVSLSCAVKGFYPSDIAVEWESNGQPENNYKTTPPVLDSDGSFFLVSKLTVDKSRWQQGNVFSCSVMHEALHNHYTQKSLSLSPGK light 1: not shown heavy 2: QVQLQESGPGLVKPSETLSLTCTVSGGSISSDYWGWIRQPPGKGLEWIGYISYRGSTNYNPSLKSRVTISVDTSRNQFSLKLSSVTAADTAVYYCARSAGVTDFDAWGQGTLVTVSSASTKGPSVFPLAPSSKSTSGGTAALGCLVKDYFPEPVTVSWNSGALTSGVHTFPAVLQSSGLYSLSSVVTVPSSSLGTQTYICNVNHKPSNTKVDKRVEPKSCDKTHTCPPCPAPEAAGGPSVFLFPPKPKDTLMISRTPEVTCVVVDVSHEDPEVKFNWYVDGVEVHNAKTKPREEQYNSTYRVVSVLTVLHQDWLNGKEYKCKVSNKALAAPIEKTISKAKGQPREPQVYTLPPCREEMTKNQVSLWCLVKGFYPSDIAVEWESNGQPENNYKTTPPVLDSDGSFFLYSKLTVDKSRWQQGNVFSCSVMHEALHNHYTQKSLSLSPGK light 2: not shown | 2.16 nM | 0.583 nM |
| GWM570 (bispecific antibody, human IgG1, kappa, lambda, L234A L235A) heavy 1: EVQLLESGGGLVQPGGSLRLSCAASGFTFSINAMTWVRQAPGKGLEWVSTISGSGFSTYYADSLKGRFTISRDNSKNTLYLQMNSLRAEDTAVYYCAKEVYGDYWGQGTLVTVSSASTKGPSVFPLAPSSKSTSGGTAALGCLVKDYFPEPVTVSWNSGALTSGVHTFPAVLQSSGLYSLSSVVTVPSSSLGTQTYICNVNHKPSNTKVDKRVEPKSCDKTHTCPPCPAPEAAGGPSVFLFPPKPKDTLMISRTPEVTCVVVDVSHEDPEVKFNWYVDGVEVHNAKTKPREEQYNSTYRVVSVLTVLHQDWLNGKEYKCKVSNKALAAPIEKTISKAKGQPREPQVCTLPPSREEMTKNQVSLSCAVKGFYPSDIAVEWESNGQPENNYKTTPPVLDSDGSFFLVSKLTVDKSRWQQGNVFSCSVMHEALHNHYTQKSLSLSPGK light 1: not shown heavy 2: QVQLQESGPGLVKPSETLSLTCTVSGGSISSDFWGWIRQPPGKGLEWIGYISSRGSTNYNPSLKRRVTISVDTSRNQFSLKLSSVTAADTAVYYCARSAGVTDFDFWGQGTLVTVSSASTKGPSVFPLAPSSKSTSGGTAALGCLVKDYFPEPVTVSWNSGALTSGVHTFPAVLQSSGLYSLSSVVTVPSSSLGTQTYICNVNHKPSNTKVDKRVEPKSCDKTHTCPPCPAPEAAGGPSVFLFPPKPKDTLMISRTPEVTCVVVDVSHEDPEVKFNWYVDGVEVHNAKTKPREEQYNSTYRVVSVLTVLHQDWLNGKEYKCKVSNKALAAPIEKTISKAKGQPREPQVYTLPPCREEMTKNQVSLWCLVKGFYPSDIAVEWESNGQPENNYKTTPPVLDSDGSFFLYSKLTVDKSRWQQGNVFSCSVMHEALHNHYTQKSLSLSPGK light 2: not shown | 2.13 nM | 0.257 nM |

Source: patent EP4671273A1 (Anaveon AG, dated 2025)
